Laboratory results from patent US20090169562A1 (CRUCELL HOLLAND B V, published 2009).

B1: SC06-415 (scFv)
scFv: EVQLVESGGGLVQPGRSLRLSCAASGFTFDDYAMHWVRQAPGKGLEWVSGISWNSGSIGYADSVKGRFTISRDNAKNSLYLQMNSLRAEDSAVYYCARGGQRFDFWGQGTLVTVSSGTGGSGGTGSGTGGSTQSALTQPPSASGSPGQSVTISCTGTSSDVGGYNYVSWYQQLPGKAPKLLIYDVNNRPSGVSNRFSGSKSGNTASLTISGLQAEDEAEYYCGSSVGSRLRIFGGGTKLTVL
notes: Vl 133-242); also called single-chain phage antibody SC06-415
B2: SC06-429 (scFv)
scFv: QVQLVQSGAEVKNPGESLKISCKGSGYTFTSYWIGWVRQMPGKGLEWMGSIYPGDSDTRYSPSFQGQVTISVDKSISTAYLQWSSLKASDTAMYYCARQYRAGSTTRFDPWGQGTLVTVSSGTGGSGGTGSGTGGSTDVVMTQSPLSLPVTPGEPASISCRSSQSLRHRNGNNYLDWYLQKPGQSPQLLIYLGSNRASGVPDRFSGSGSGTDFTLKISRVEAEDVGIYYCMQALQTPLTFGGGTKVEIK
notes: Vl 138-249); also called single-chain phage antibody SC06-429
B3: SC05-159 (scFv)
scFv: QVQLVQSGAEVKKPGATVKISCKVSGYTFTDYYMHWVQQAPGKGLEWMGLVDPEDGETIYAEKFQGRVTITADTSTDTAYMELSSLRSDDTAVYYCARAEVMTTINNWYFDLWGRGTLVTVSSGTGGSGGTGSGTGGSTSYVLTQPPSASGTPGQRVTISCSGSSSNIGSNNVSWYQQLPGTAPKLLIYSNNQRPSGVPDRFSGSKSGTSASLAISGLQSEDEADYYCAAWDDSLNGWVFGGGTKLTVL
notes: Vl 140-249); also called single-chain phage antibody SC05-159
B4: SC06-432 (scFv)
scFv: QLQLQESGPGLVKPSQTLSLTCTVSGGSISSGGYYWSWIRQHPGKGLEWIGYIYYSGSTYYNPSLKSRVTISVDTSKNQFSLKLSSVTAADTAVYYCARERILDRMNDYWGQGTLVTVSSGTGGSGGTGSGTGGSTQSVVTQPPSVSGAPGQRVTISCTGSSSNIGAGYDVHWYQQLPGTAPKLLIYGNSNRPSGVPDRFSGSKSGTSASLAITGLQAEDEADYYCQSSDSSLNILFGGGTKLTVL
notes: Vl 137-246); also called single-chain phage antibody SC06-432
B5: SC05-179 (scFv)
scFv: EVQLVESGGGLVKPGGSLGLSCAASGFFFSDYSMSWIRQAPGKGLEWLSNISGSGHSTKYAESMRGRITISRDNAKKSLSLQLNSLRAEDTAVYFCVRGGGYRMDVWGQGTTVTVSSGTGGSGGTGSGTGGSTQSALTQPRSVPGSPGQSVTISCTGTSSDVGGYNYVSWYQQHPGKAPKLMIYDVSKRPSGVPDRFSGSKSGNTASLTVSGLQAEDEADYYCSSYAGSNNFVVFGGGTKLTVL
notes: Vl 134-244); also called single-chain phage antibody SC05-179
B6: SC05-187 (scFv)
scFv: EVQLVQSGAEVKKPGESLKISCKGSGYSFTKYWIGWVRQMPGKGLEWMGIIYPGDSDTRYSPSFQGQVTISADKSISTAYLQWSSLKASDTAMYYCARGSGIATGNSFDSWGQGTLVTVSSGTGGSGGTGSGTGGSTQTVVTQEPSLTVSPGGTVTLTCASSTGAVTSGYYPNWFQQKPGQAPRALIYSTSKKHSWTPARFSGSLLGGRAALTLSGAQPEDEADYYCLLSYGGARVFGGGTKLTVL
notes: Vl 138-246); also called single-chain phage antibody SC05-187
B7: SC06-016 (scFv)
scFv: QVQLVQSGPEVKKPGASVTVSCKASGYSFSSYGISWVRQAPGQGLEWMGRIIPVGGNTLYSQMFQGRVTMTSDTSTSTVYLELSSLRSEDTAVYFCARDGGRWQFDYWGQGTLVTVSSGTGGSGGTGSGTGGSTDIQLTQSPSSVSASVGDRVTITCRASQGISNWLAWYQQKPGKAPELLIYAASSLQSGVPPRFSGSASGTDFTLTISSLQPEDFATYYCQQSKNFPYTFGQGTKVEIK
notes: Vl 135-241); also called single-chain phage antibody SC06-016
B8: SC06-043 (scFv)
scFv: EVQLVESGAEVKKPGESLKISCKGSGYSFTSYWIGWVRQMPGKGLEWMGIIYPGDSDTRYSPSFQGQVTISADKSISTAYLQWSSLKASDTAMYYCARRYCSGGTCSDGFDIWGQGTMVTVSSGTGGSGGTGSGTGGSTQSALTQPPSASGSPGQSVTISCTGTSSDVGGYNYVSWYQQHPGKAPKLMIYEVSKRPSGVPDRFSGSKSGNTASLTVSGLQAEDEADYYCSSYAGSNNLVFGGGTKLTVL
notes: Vl 140-249); also called single-chain phage antibody SC06-043
B9: SC06-049 (scFv)
scFv: QVQLVQSGAEVKKPGESLKISCKGSGYSFTSYWIGWVRQMPGKGLEWMGIIYPGDSDTRYSPSFQGQVTISADKSIGTAYLQWSSLKASDTAMYYCARLFRVRGGHFDSWGQGTLVTVSSGTGGSGGTGSGTGGSTQSALTQPASVSGSPGQSITISCTGTNSDVGGYNYVSWYQQHPGKAPKLLIYDVTNRPSGVSNRFSASKSGNTASLTISGLQAEDEADYYCSSFTSSSTRVFGGGTKLTVL
notes: Vl 137-246); also called single-chain phage antibody SC06-049

Each binder was assayed against T1, bovine serum albumin (BSA) (bovine, UniProt P02769 25-607) (assay: phage ELISA, 1% BSA coated, anti-M13-HRP detection).
T1 construct: Control antigen coated at 1% in PBS (pH 7.4); also called negative control antigen
Method: (§1) Selected single-chain phage antibodies that were obtained in the screens described above were validated in ELISA for specific enterococcal binding activity, i.e. binding to one or more enterococcal strains prepared as described supra. 2.5×10⁸ bacteria were coated overnight at 4° C. to Maxisorp™ ELISA plates in 50 μl 50 mM carbonate buffer, pH 9.6. As negative controls, the complex antigens 2% ELK and 1% BSA both in PBS (pH 7.4) were coated. Wells were washed in PBS containing 0.1% (v/v) Tween-20 and blocked with 300 μl PBS containing 2% ELK for at least 1 hour at room temperature. The selected single-chain phage antibodies were incubated for 15 minutes in an equal volume of PBS containing 2% ELK to obtain blocked phage antibodies. The plates were emptied and the blocked single-chain phage antibodies were added to the wells. Incubation was allowed to proceed for one hour at room temperature, the plates were washed in PBS containing 0.1% (v/v) Tween-20 and bound phage antibodies were detected using an anti-M13 antibody conjugated to peroxidase. Absorbance at 492 nm was measured using a spectrophotometer. As a control, the procedure was performed simultaneously without single-chain phage antibody and with a negative control single-chain phage antibody directed against West Nile virus envelope protein (SC04-374).

T1 sequence (P02769 25-607 limits assumed): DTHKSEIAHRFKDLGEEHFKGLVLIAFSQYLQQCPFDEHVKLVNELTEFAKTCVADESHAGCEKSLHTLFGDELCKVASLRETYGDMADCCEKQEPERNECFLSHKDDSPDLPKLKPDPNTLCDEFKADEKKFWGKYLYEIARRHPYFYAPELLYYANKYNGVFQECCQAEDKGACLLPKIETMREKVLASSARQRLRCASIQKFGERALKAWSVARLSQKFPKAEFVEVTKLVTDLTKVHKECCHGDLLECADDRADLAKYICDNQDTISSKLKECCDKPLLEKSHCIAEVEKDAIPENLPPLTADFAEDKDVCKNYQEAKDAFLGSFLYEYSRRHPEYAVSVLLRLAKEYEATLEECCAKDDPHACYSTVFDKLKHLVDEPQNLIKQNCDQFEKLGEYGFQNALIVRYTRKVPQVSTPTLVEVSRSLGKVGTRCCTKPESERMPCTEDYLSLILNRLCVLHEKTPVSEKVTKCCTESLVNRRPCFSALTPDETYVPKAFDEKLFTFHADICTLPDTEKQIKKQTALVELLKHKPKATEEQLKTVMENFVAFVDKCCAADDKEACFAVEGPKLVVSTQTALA

Binder	OD492 nm
B1	0.044 OD492 nm
B2	0.068 OD492 nm
B3	0.06 OD492 nm
B4	0.059 OD492 nm
B5	0.045 OD492 nm
B6	0.055 OD492 nm
B7	0.044 OD492 nm
B8	0.045 OD492 nm
B9	0.042 OD492 nm

What follows are binders tested against T1, bovine serum albumin (BSA) (assay: phage ELISA, BSA coated).
Method: as §1

Binder	binding result
B1	no binding
B2	no binding
B3	no binding
B4	no binding
B5	no binding
B6	no binding
B7	no binding
B8	no binding
B9	no binding
